Source: publication PMC12881857, “The MabZIP5–MaMYB69 module cooperates with MaERF55 to modulate banana fruit ripening via cell wall degradation”

How the values were obtained:
GST-MaMYB69 [1] = target: T1, GST-MaMYB69 (banana, UniProt A0A804IQI7 1-348); assay: EMSA; Chemiluminescent EMSA Kit (Beyotime); buffer, salt, pH and temperature not stated; settings: protein: recombinant, tags: GST (N-term, pGEX-4T-1), blunt
T1 sequence: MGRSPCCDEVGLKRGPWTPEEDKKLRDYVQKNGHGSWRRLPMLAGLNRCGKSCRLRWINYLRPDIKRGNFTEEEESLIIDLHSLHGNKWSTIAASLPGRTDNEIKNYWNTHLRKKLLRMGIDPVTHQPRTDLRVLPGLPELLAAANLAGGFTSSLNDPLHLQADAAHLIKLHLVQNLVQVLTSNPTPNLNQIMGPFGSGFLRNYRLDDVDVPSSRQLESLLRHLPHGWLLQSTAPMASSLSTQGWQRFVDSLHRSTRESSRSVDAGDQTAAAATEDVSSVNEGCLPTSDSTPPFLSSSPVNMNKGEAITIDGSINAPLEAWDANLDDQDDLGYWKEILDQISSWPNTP

GST-MaMYB69 [2] = target: T1, GST-MaMYB69; assay: competition; 50-fold excess mutant competitor vs N3; Chemiluminescent EMSA Kit (Beyotime); buffer, salt, pH and temperature not stated; settings: protein: recombinant; tags: GST (N-term, pGEX-4T-1); blunt
GST-MaMYB69 [3] = target: T1, GST-MaMYB69; assay: competition; 50-fold excess mutant competitor vs N5; Chemiluminescent EMSA Kit (Beyotime); buffer, salt, pH and temperature not stated; settings: protein: recombinant; tags: GST (N-term, pGEX-4T-1); blunt
GST-MaMYB69 [4] = target: T1, GST-MaMYB69; assay: competition; 50-fold excess mutant competitor vs N7; Chemiluminescent EMSA Kit (Beyotime); buffer, salt, pH and temperature not stated; settings: protein: recombinant; tags: GST (N-term, pGEX-4T-1); blunt
GST-MaMYB69 [5] = target: T1, GST-MaMYB69; assay: competition; 50-fold excess mutant competitor vs N9; Chemiluminescent EMSA Kit (Beyotime); buffer, salt, pH and temperature not stated; settings: protein: recombinant; tags: GST (N-term, pGEX-4T-1); blunt
GST-MaMYB69 [6] = target: T1, GST-MaMYB69; assay: competition; 50-fold excess mutant competitor vs N1; Chemiluminescent EMSA Kit (Beyotime); buffer, salt, pH and temperature not stated; settings: protein: recombinant; tags: GST (N-term, pGEX-4T-1); blunt

B1: MaPL1 promoter probe (dsDNA)
DNA 1: TCCTGCATCTTGGACGAGTTTGGTGTACCCAAAGAGGACG
DNA 2: CGTCCTCTTTGGGTACACCAAACTCGTCCAAGATGCAGGA
B1: binds (GST-MaMYB69 [1]; label: biotin).

B2: MaPG3 promoter probe (dsDNA)
DNA 1: AGGCATCCAACAACTTTCTCCACCAACCTTGCTTGCATAC
DNA 2: GTATGCAAGCAAGGTTGGTGGAGAAAGTTGTTGGATGCCT
B2: binds (GST-MaMYB69 [1]; label: biotin).

B3: MaACO1 promoter probe (dsDNA)
DNA 1: ATTGCTTTCTTGTGGCCACCAACCGGAGAAAGGGAGTCTA
DNA 2: TAGACTCCCTTTCTCCGGTTGGTGGCCACAAGAAAGCAAT
B3: binds (GST-MaMYB69 [1]).

B4: MaMYB69 promoter probe (dsDNA)
DNA 1: AGGTGCCATGCCGCACACCTAAACCTCTTCTGCCCTTTTG
DNA 2: CAAAAGGGCAGAAGAGGTTTAGGTGTGCGGCATGGCACCT
B4: binds (GST-MaMYB69 [1]; label: biotin).

B5: MaPL1 mutant probe (dsDNA)
DNA 1: TCCTGCATCTTGGACGAGAAAAAAGTACCCAAAGAGGACG
DNA 2: CGTCCTCTTTGGGTACTTTTTTCTCGTCCAAGATGCAGGA
B5: no binding (GST-MaMYB69 [2]).

B6: MaGAL mutant probe (dsDNA)
DNA 1: GTAGGGAGTTTTTTTTGCTTGTGTGTGAAAAAAAGATAAA
DNA 2: TTTATCTTTTTTTCACACACAAGCAAAAAAAACTCCCTAC
B6: no binding (GST-MaMYB69 [3]).

B7: MaPG3 mutant probe (dsDNA)
DNA 1: AGGCATCCAACAACTTTCTCCTTTTTTCTTGCTTGCATAC
DNA 2: GTATGCAAGCAAGAAAAAAGGAGAAAGTTGTTGGATGCCT
B7: no binding (GST-MaMYB69 [4]).

B8: MaMYB69 mutant probe (dsDNA)
DNA 1: AGGTGCCATGCCGCACTTTTTTAAAAAATCTGCCCTTTTG
DNA 2: CAAAAGGGCAGATTTTTTAAAAAAGTGCGGCATGGCACCT
B8: no binding (GST-MaMYB69 [5]).

B9: MaGAL promoter probe (dsDNA)
DNA 1: GTAGGGAGACCAAATTGCTTGTGTGTGTTTGGTAGATAAA
DNA 2: TTTATCTACCAAACACACACAAGCAATTTGGTCTCCCTAC
B9: binds (GST-MaMYB69 [1]; label: biotin).

B10: MaPE promoter probe (dsDNA)
DNA 1: GTGTCGATGGTGAAGTGTTTGGAGAAGTAGGAGCGGCAGC
DNA 2: GCTGCCGCTCCTACTTCTCCAAACACTTCACCATCGACAC
B10: binds (GST-MaMYB69 [1]; label: biotin).

B11: MaPE mutant probe (dsDNA)
DNA 1: GTGTCAAAAAAGAAGTGTTTGGAGAAGTAGGAGCGGCAGC
DNA 2: GCTGCCGCTCCTACTTCTCCAAACACTTCTTTTTTGACAC
B11: no binding (GST-MaMYB69 [6]).
